According to US20140170149A1:

Legend:
[1] = biological target: hu-HER2-ch(I) (chicken (Gallus gallus); human) (UniProt P04626); assay: flow cytometry on CHO-S cells transiently transfected with hu-HER2-ch(I), PE-goat anti-human IgG, MFI (Example 24)
[2] = biological target: hu-HER2-ch(IV) (human; chicken (Gallus gallus)) (UniProt P04626); assay: flow cytometry on CHO-S cells transiently transfected with hu-HER2-ch(IV), PE-goat anti-human IgG, MFI (Example 24)
[3] = biological target: hu-HER2-ch(III) (human; chicken (Gallus gallus)) (UniProt P04626); assay: flow cytometry on CHO-S cells transiently transfected with hu-HER2-ch(III), PE-goat anti-human IgG, MFI (Example 24)

EC50 (read off the curve) [1]: 0.05 µg/mL | EC50 (read off the curve) [2]: 0.04 µg/mL | EC50 (read off the curve) [3]: 0.03 µg/mL
B1: HER2 HuMab 153 (antibody, V domains shown)
VH: QVQLVESGGGVVQPGRSLRLSCAASGFTFSDYVIHWVRQAPGKGLEWVTVISYDGSNKYYADSVKGRFTISRDNSKNTLYLQMNSLSAEDTAMYYCARGGITGTTGVFDYWGQGTLVTVSS
VL: DIQMTQSPSSLSASVGDRVTITCRASQGISSWLAWYQQKPEKAPKSLIYDASSLQSGVPSRFSGSGYGTDFSLTISSLQPEDFAIYYCQQYKSYPITFGQGTRLEIK
